The numbers were not newly measured in publication PMC6389863, which cites them from elsewhere.

What is called pKa is the pH at which an ionisable group is half protonated.

The target in series [1] is Cys25 (UniProt position 158, GSCGSCWAFSA).
Series [2] addresses Glu73 (UniProt position 120, GRTWREADINY).
Series [3] deals with Lys55.
Series [4] has as its target His149 (UniProt position 177, ITFTNHVNAWK).
The subject of series [5] is Tyr31.
For series [6], the target named is Cys25 (UniProt position 157, GSCGSCWAFSA).
Series [7] addresses Asp76 (UniProt position 102, GSPGADRVVFN).
Series [8] has as its target Asp70 (UniProt position 70, KLFNQDVDAAV).
For series [9], the target named is Asp102 (UniProt position 102, LTINNDITLLK).
The target in series [10] is Asp26 (UniProt position 26, KLVVVDFSATW). The following applies: reduced (active-site dithiol) thioredoxin.
Series [11] deals with Tyr149 (UniProt position 149, TPQSPYGKSKL).
In series [12] the target is Cys87 (UniProt position 87, RLGRICLDVLK).
The target in series [13] is His72 (UniProt position 73, GINTAHKARQV).
Series [14] deals with Lys39 (UniProt position 39, EFPGGKIEMGE).
The target in series [15] is His18 (UniProt position 19, KCAQCHTVEKG).

Where only a bound is given, the exact number is not on record here.

On to Papain (Carica papaya (inferred)), for which the pKa in [1] is listed as 3.32.
Turning to “Barnase (not stated (inferred Bacillus amyloliquefaciens))”, the pKa in [2] is 2.1.
Consider Calbindin D9k (bovine) (Bos taurus), for which the pKa in series [3] is listed as 12.12.
As to “Xylanase (Bacillus circulans xylanase) (Bacillus circulans (from the title of ref 20))”, the pKa in series [4] was under 2.3.
As to “Ovomucoid third domain, silver pheasant (OMSVP3) (Lophura nycthemera (silver pheasant))”, the pKa in [5] is given as 12.5.
Consider “Papaya protease (PDB 1PPO; caricain / papaya protease omega) (Carica papaya (inferred))”, for which, in series [6], the pKa is 2.88.
“Ribonuclease T1 (RNase T1) (not stated (inferred Aspergillus oryzae))”: in [7], the pKa is reported as 0.5.
“T4 lysozyme (Enterobacteria phage T4 (inferred))”: in series [8], the pKa is 0.5.
Consider “Chymotrypsinogen A (bovine) (Bos taurus)”, for which the pKa in series [9] is 1.36.
With “Thioredoxin (human, reduced) (Homo sapiens)”, the pKa in series [10] is given as 9.9.
As to “UDP-galactose 4-epimerase (Escherichia coli)”, the pKa in [11] was 6.08.
Consider “Ubiquitin-conjugating enzyme Ubc13 (not stated (PDB 1JBB is Saccharomyces cerevisiae Ubc13, inferred))”, for which the pKa in series [12] is reported as 11.1.
For “Bovine heart phosphotyrosyl phosphatase (low molecular weight PTP) (Bos taurus)”, the pKa in series [13] was 9.19.
“MutT enzyme (not stated (inferred Escherichia coli))”: the pKa in [14] is 8.4.
Take Cytochrome c (horse) (Equus caballus): in series [15], the pKa was 2.5.
